Substitutions are numbered along the chain they refer to. Blank lines part the entries; values can stand above or below the molecule they belong to.
Columns and labels:
CSK (p50csk) = test: In vitro kinase assay: phosphorylation of Rak carboxy-terminal peptides by CSK; assay type: biochemical; conditions: relative to wild-type peptide for the mutants
Description: Peptide, Preparation for Phosphorylation. Initially, the OAg was tested for phosphorylation by CSK in an in vitro kinase reaction and was phosphorylated. To further assess which tyrosine was phosphorylated, each of the four tyrosines in the substrate peptide were mutated to phenylalanine by the double-stranded, site-directed mutagenesis method (Deng and Nickoloff. Site-directed mutagenesis of virtually any plasmid by eliminating a unique site. Anal. Biochem., 200:81-88 (1992)). The plasmid was denatured by heating to 100° C. for 5 min and then annealed to a mutagenic primer and a second primer converting an Af/AII site on the plasmid to a Bg/II site. The mutagenic primers for the four tyrosines were: Y45Uf, 5′-[…]-3′ (SEQ ID NO:9); Y163F, 5′-[…]-3′ (SEQ ID NO:10); Y490F, 5′-TGAAGAC-TTTTTTGAAACAG-3′ (SEQ ID NO:11); and Y497F, 5′-[…]-3′ (SEQ ID NO:12).
Purified μ50^csk and Enzyme Assays. p50^csk was produced in S/9 cells from a Baculovirus vector containing the full-length csk cDNA (Okada et al., J. Biol. Chem; 264:20886-20893(1989)), purified according to Murphy et al. (Mol. Cell. Biol., 13:5290-5300 (1993), and mixed with the different peptides of Rak. These peptides correspond to the last 62 amino acids of the kinase, containing four tyrosine residues (Y450, Y463, Y490, and […]), and mutant peptides where each of the four tyrosines was […]. The phosphorylation of the native peptide was compared to the that of the mutant peptides. For the in vitro kinase assay, different amounts of p50^csk were mixed with different amount of the peptides in a reaction buffer (10 mM HEPES (pH 7.4) 10 mM MnCl21. Four μg bovine serum albumin were added to the 20-μl mixture, and the reaction was initiated with the addition of AIP to 1 μm and 10 μCl of 1 γ-^32P)ATP (3000 Ci/mmol; Amersham). Tubes were incubated at 30° C. for 15 min, and the reaction was stopped by the addition of SDS-PAGE sample buffer. The samples were boiled and analyzed on 15% SDS-PAGE gels, which were fixed, stained, and exposed to film at […].
The Carboxy Terminus of Rak Is Phosphorylated by CSK. Since CSK phosphorylates the carboxy terminal tyrosines of several other Src-related kinases, the ability of CSK to phosphorylate a recombinant carboxy-terminal peptide of Rak was analyzed. […] Since this peptide contained four tyrosines at positions 450, 463, 490, and 497, each tyrosine was individually mutated to phenylalanine and then the peptides were assayed for phosphorylation by CSK. […] Indeed, this residue corresponds to the CSK phosphorylation site for the other Src family members with regard to its localization in regard to the kinase domain, although the sequence context of this tyrosine differs from that of the other Src-like kinases.

[1] = biological target: T1, RbABC (Rb amino acids 379-928, A/B pocket and carboxy-terminus) (Homo sapiens, UniProt P06400); test: Rb in vitro binding assay, GST-RbABC; conditions: for Rb binding of Rak deletion forms: Rb fusion protein not specified
T1 construct: Rb fusion proteins encoding amino acids 379-928 (RbABC); made in house; host or cells: pGEX-4T plasmid
T1 sequence (P06400 379-928): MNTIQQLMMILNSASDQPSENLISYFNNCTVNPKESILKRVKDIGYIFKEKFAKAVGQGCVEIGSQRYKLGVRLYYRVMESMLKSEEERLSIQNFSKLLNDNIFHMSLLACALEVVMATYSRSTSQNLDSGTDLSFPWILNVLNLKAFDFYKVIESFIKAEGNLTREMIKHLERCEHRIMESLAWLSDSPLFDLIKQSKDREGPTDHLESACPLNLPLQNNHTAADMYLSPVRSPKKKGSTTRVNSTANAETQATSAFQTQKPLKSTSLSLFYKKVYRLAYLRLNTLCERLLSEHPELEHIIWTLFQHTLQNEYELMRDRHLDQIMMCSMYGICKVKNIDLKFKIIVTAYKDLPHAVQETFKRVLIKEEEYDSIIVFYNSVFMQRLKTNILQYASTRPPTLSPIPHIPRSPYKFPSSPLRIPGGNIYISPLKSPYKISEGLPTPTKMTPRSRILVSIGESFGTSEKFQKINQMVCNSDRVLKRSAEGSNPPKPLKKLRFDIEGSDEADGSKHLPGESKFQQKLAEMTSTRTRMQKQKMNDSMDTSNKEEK
Description: (§1) Affinity Precipitations. DNA fragments encoding the amino terminal region of Rak were prepared using the polymerase chain reaction with Pyrococcus furiosus DNA polymerase (Stratagene), and cloned into the pGEX-4T plasmid (Pharmacia). Rb fusion proteins encoding amino acids 379-928 (RbABC, containing the A/B pocket region and the COOH-terminal domain) and 780-928 (RbC for COOH terminal domain only), were prepared similarly. The GST fusion proteins were induced and purified according to the manufacturer's instructions, and were analyzed by SDS-PAGE to ensure that an equal amount of protein was used for the affinity precipitation procedure.
The same procedure was followed for Rb in vitro binding assays, except that the Rb-GST fusion proteins were incubated in the in vitro translated forms of Rak in NP-40 buffer containing 0.5% fraction V bovine serum albumin (Boehringer Mannheim). After three washes with the same buffer, bound proteins were analyzed by SDS-PAGE and detected by autoradiography. Rak was in vitro translated using the TnT-coupled transcription/translation system (Promega) with 2 ug of the pAlt-Rak plasmid. The Rak (1-152) construct was prepared by digesting the pAlt-Rak plasmid with EcoRI to obtain the 5′ EcoRI fragment of Rak.
An in vitro binding reaction was then used to further identify the essential components for the Rak-Rb interaction. In vitro translated Rak was incubated with two Rb-GST fusion proteins, where one encoded amino acids 379-928, spanning the A/B pocket and carboxy-terminus (RbABC), while the other fusion protein encoded amino acids 780-928, and represented only the carboxy-terminus (RbC). […] As a control, the Src protein was in vitro translated and subjected to the same binding reaction, and no binding of Src to any portion of Rb was detected (data not shown).

[2] = biological target: T2, RbC (Rb amino acids 780-928, carboxy-terminus) (Homo sapiens, UniProt P06400); test: Rb in vitro binding assay, GST-RbC; conditions: in vitro translated protein
T2 construct: the other fusion protein encoded amino acids 780-928; made in house; host or cells: pGEX-4T plasmid
T2 sequence (P06400 780-928): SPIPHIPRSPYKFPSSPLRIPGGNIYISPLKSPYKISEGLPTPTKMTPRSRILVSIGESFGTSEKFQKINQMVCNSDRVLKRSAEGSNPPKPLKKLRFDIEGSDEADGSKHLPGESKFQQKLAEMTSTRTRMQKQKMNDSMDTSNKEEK
Description: as §1
The same procedure was followed for Rb in vitro binding assays, except that the Rb-GST fusion proteins were incubated in the in vitro translated forms of Rak in NP-40 buffer containing 0.5% fraction V bovine serum albumin (Boehringer Mannheim). After three washes with the same buffer, bound proteins were analyzed by SDS-PAGE and detected by autoradiography. […]
An in vitro binding reaction was then used to further identify the essential components for the Rak-Rb interaction. […] As a control, the Src protein was in vitro translated and subjected to the same binding reaction, and no binding of Src to any portion of Rb was detected (data not shown).

phosphorylation by CSK (CSK (p50csk)): readily phosphorylated
phosphorylation by CSK (CSK (p50csk); listed as OAg): phosphorylated
B1: wild-type peptide: hexahistidine fusion protein containing the 62 carboxy-terminal amino acids of Rak (protein, UniProt P42685 444-505, looked up, fragment)
chain: QMLAQNYRLPQPSNCPQQFYNIMLECWNAEPKERPTFETLRWKLEDYFETDSSYSDANNFIR
modifications: hexahistidine tag
notes: hexahistidine fusion protein containing the 62 carboxy-terminal amino acids of Rak

phosphorylation by CSK (CSK (p50csk)): about one-half
B2: mutant at position 490: 62-amino-acid carboxy-terminal Rak peptide with tyrosine 490 mutated to phenylalanine (protein, UniProt P42685 444-505, looked up, variant Y490F)
chain: B1 chain with Y47F
modifications: C-terminal 62 residues His tag
notes: 62-amino-acid carboxy-terminal Rak peptide with tyrosine 490 mutated to phenylalanine

phosphorylation by CSK (CSK (p50csk)): about one-half
B3: mutant at position 450: 62-amino-acid carboxy-terminal Rak peptide with tyrosine 450 mutated to phenylalanine (protein, UniProt P42685 444-505, looked up, variant Y450F)
chain: B1 chain with Y7F
modifications: C-terminal 62 residues His tag
notes: 62-amino-acid carboxy-terminal Rak peptide with tyrosine 450 mutated to phenylalanine

phosphorylation by CSK (CSK (p50csk)): barely detectable
B4: 497 mutant: 62-amino-acid carboxy-terminal Rak peptide with tyrosine 497 mutated to phenylalanine (protein, UniProt P42685 444-505, looked up, variant Y497F)
chain: B1 chain with Y54F
modifications: C-terminal 62 residues His tag
notes: 62-amino-acid carboxy-terminal Rak peptide with tyrosine 497 mutated to phenylalanine

Rb binding of Rak deletion forms [1]: minimally detectable
B5: Rak with amino acids 1-110 deleted: Rak lacking the unique N-terminal region and the SH3 domain (protein, UniProt P42685 111-505, looked up, fragment)
chain: LQAEPWFFGAIGRSDAEKQLLYSENKTGSFLIRESESQKGEFSLSVLDGAVVKHYRIKRLDEGGFFLTRRRIFSTLNEFVSHYTKTSDGLCVKLGKPCLKIQVPAPFDLSYKTVDQWEIDRNSIQLLKRLGSGQFGEVWEGLWNNTTPVAVKTLKPGSMDPNDFLREAQIMKNLRHPKLIQLYAVCTLEDPIYIITELMRHGSLQEYLQNDTGSKIHLTQQVDMAAQVASGMAYLESRNYIHRDLAARNVLVGEHNIYKVADFGLARVFKVDNEDIYESRHEIKLPVKWTAPEAIRSNKFSIKSDVWSFGILLYEIITYGKMPYSGMTGAQVIQMLAQNYRLPQPSNCPQQFYNIMLECWNAEPKERPTFETLRWKLEDYFETDSSYSDANNFIR

binding to RbABC fusion protein ([1]; in vitro translated protein, SDS-PAGE and autoradiography): bound efficiently
binding to RbC protein, fold less than to RbABC [2]: approximately 5 fold
B6: full-length Rak: in vitro translated full-length Rak protein (SEQ ID NO:2) (protein)
chain: MSNICQRLWEYLEPYLPCLSTEADKSTVIENPGALCSPQSQRHGHYFVALFDYHAPTAEELSFRAGDKLQVLDTLHEGWWFARHLEKRRDGSSQQLQGYIPSNYVAEDRSLQAEAWFFGAIRRSDAEKQLLYSENKTGSFLIRESESQKGEFSLSVLDGAVVKHYRIKRLDEGGFFLTRRRIFSTLNEFVSHYTKTSDGLCVKLGKPCLKIQVPAPFDLSYKTVDQWEIDRNSIQLLKRLGSGQFGEVWEGLWNNTTPVAVKTLKPGSMDPNDFLREAQIMKNLRHPKLIQLYAVCTLEDPIYIITELMRHGSLQEYLQNDTGSKIHLTQQVDMAAQVASGMAYLESRNYIHRDLAARNVLVGEHNIYKVADFGLARVFKVDNEDIYESRHEIKLPVKWTAPEAIRSNKFSIKSDVWSFGILLYEIITYGKMPYSGMTGAQVIQMLAQNYRLPQPSNCPQQFYNIMLECWNAEPKERPTFETLRWKLEDYFETDSSYSDANNFIR

Rb binding of Rak deletion forms [1]: no change in Rb binding
B7: Rak with amino acids 1-46 deleted: Rak lacking the unique N-terminal region (LPCLSTE sequence removed) (protein, UniProt P42685 47-505, looked up, fragment)
chain: FVALFDYQARTAEDLSFRAGDKLQVLDTLHEGWWFARHLEKRRDGSSQQLQGYIPSNYVAEDRSLQAEPWFFGAIGRSDAEKQLLYSENKTGSFLIRESESQKGEFSLSVLDGAVVKHYRIKRLDEGGFFLTRRRIFSTLNEFVSHYTKTSDGLCVKLGKPCLKIQVPAPFDLSYKTVDQWEIDRNSIQLLKRLGSGQFGEVWEGLWNNTTPVAVKTLKPGSMDPNDFLREAQIMKNLRHPKLIQLYAVCTLEDPIYIITELMRHGSLQEYLQNDTGSKIHLTQQVDMAAQVASGMAYLESRNYIHRDLAARNVLVGEHNIYKVADFGLARVFKVDNEDIYESRHEIKLPVKWTAPEAIRSNKFSIKSDVWSFGILLYEIITYGKMPYSGMTGAQVIQMLAQNYRLPQPSNCPQQFYNIMLECWNAEPKERPTFETLRWKLEDYFETDSSYSDANNFIR

less efficiency of binding to RbABC fusion protein ([1]; compared with full-length Rak): approximately 30%
binding to RbC protein [2]: no longer detectable
B8: Rak (amino acids 1-152): in vitro translated amino-terminal fragment of Rak with unique amino-terminal region and SH3 domain (protein, UniProt P42685 1-152, looked up, fragment)
chain: MSNICQRLWEYLEPYLPCLSTEADKSTVIENPGALCSPQSQRHGHYFVALFDYQARTAEDLSFRAGDKLQVLDTLHEGWWFARHLEKRRDGSSQQLQGYIPSNYVAEDRSLQAEPWFFGAIGRSDAEKQLLYSENKTGSFLIRESESQKGEF

Reference: patent US6531296B1, “Nuclear tyrosine kinase Rak” (The University of North Carolina at Chapel Hill, priority 1995, dated 2003)
